Measured values: patent publication US20130224798A1

Molecular target: Toll-like Receptor 5 (TLR5) constitutively expressed by HEK293 cells (UniProt O60602)
Assay: cell-based or functional assay

Row | Binder | TLR activity (EC50, ng/ml) | TLR5 activity (EC50, ng/ml)
1 | STF2.HA1-1His(PR8), produced in Baculovirus (protein) AQVINTNSLSLLTQNNLNKSQSALGTAIERLSSGLRINSAKDDAAGQAIANRFTANIKGLTQASRNANDGISIAQTTEGALNEINNNLQRVRELAVQSANSTNSQSDLDSIQAEITQRLNEIDRVSGQTQFNGVKVLAQDNTLTIQVGANDGETIDIDLKQINSQTLGLDSLNVQKAYDVKDTAVTTKAYANNGTTLDVSGLDDAAIKAATGGTNGTASVTGGAVKFDADNNKYFVTIGGFTGADAAKNGDYEVNVATDGTVTLAAGATKTTMPAGATTKTEVQELKDTPAVVSADAKNALIAGGVDATDANGAELVKMSYTDKNGKTIEGGYALKAGDKYYAADYDEATGAIKAKTTSYTAADGTTKTAANQLGGVDGKTEVVTIDGKTYNASKAAGHDFKAQPELAEAAAKTTENPLQKIDAALAQVDALRSDLGAVQNRFNSAITNLGNTVNNLSEARSRIEDSDYATEVSNMSRAQILQQAGTSVLAQANQVPQNVLSLLASGSGSGSSHNGKLCRLKGIAPLQLGKCNIAGWLLGNPECDPLLPVRSWSYIVETPNSENGICYPGDFIDYEELREQLSSVSSFERFEIFPKESSWPNHNTNGVTAACSHEGKSSFYRNLLWLTEKEGSYPKLKNSYVNKKGKEVLVLWGIHHPPNSKEQQNLYQNENAYVSVVTSNYNRRFTPEIAERPKVRDQAGRMNYYWTLLKPGDTIIFEANGNLIAPMYAFALSRGFGSGIITSNASMHECNTKCQTPLGAINSSLPYQNIHPVTIGECPKYVRHHHHHH | 3 ng/mL | –
2 | STF2.HA1-3(PR8), produced in E. coli (protein) MAQVINTNSLSLLTQNNLNKSQSALGTAIERLSSGLRINSAKDDAAGQAIANRFTANIKGLTQASRNANDGISIAQTTEGALNEINNNLQRVRELAVQSANSTNSQSDLDSIQAEITQRLNEIDRVSGQTQFNGVKVLAQDNTLTIQVGANDGETIDIDLKQINSQTLGLDSLNVQKAYDVKDTAVTTKAYANNGTTLDVSGLDDAAIKAATGGTNGTASVTGGAVKFDADNNKYFVTIGGFTGADAAKNGDYEVNVATDGTVTLAAGATKTTMPAGATTKTEVQELKDTPAVVSADAKNALIAGGVDATDANGAELVKMSYTDKNGKTIEGGYALKAGDKYYAADYDEATGAIKAKTTSYTAADGTTKTAANQLGGVDGKTEVVTIDGKTYNASKAAGHDFKAQPELAEAAAKTTENPLQKIDAALAQVDALRSDLGAVQNRFNSAITNLGNTVNNLSEARSRIEDSDYATEVSNMSRAQILQQAGTSVLAQANQVPQNVLSLLANSENGICYPGDFIDYEELREQLSSVSSFERFEIFPKESSWPNHNTNGVTAACSHEGKSSFYRNLLWLTEKEGSYPKLKNSYVNKKGKEVLVLWGIHHPPNSKEQQNLYQNENAYVSVVTSNYNRRFTPEIAERPKVRDQAGRMNYYWTLLKPGDTIIFEANGNLIAPMYAFALSRG | – | 1.2 ng/mL
